Measured values reported in patent publication US20070166710A1, “Methods for inhibiting adipogenesis and for treating type 2 diabetes” (priority 2003, published 2007).
Changes are numbered by the printed parent chain. Values belong to the binder of their own block, whether it stands above or below them.

How the values were obtained:
[1] = target: T1, HA-Akt (human Akt1 fused to an N-terminal HA-tag, expressed from pCMV-HA-Akt) (human, UniProt P31749 1-480); test: co-immunoprecipitation from transfected HEK/293 cells (anti-HA IP, Western blot for Foxa-2; the reverse anti-Foxa-2 IP also coprecipitated Akt)
T1 construct: Expressed in transfected HEK/293 or HepG2 cells; The methods also mention Akt2 for HEK/293 transfections, but pCMV-HA-Akt is defined as HA-Akt1; also called HA-Akt1; pCMV-HA-Akt-1; not shown: N-terminal HA-tag
T1 sequence (P31749 whole entry, the tested form may be a part): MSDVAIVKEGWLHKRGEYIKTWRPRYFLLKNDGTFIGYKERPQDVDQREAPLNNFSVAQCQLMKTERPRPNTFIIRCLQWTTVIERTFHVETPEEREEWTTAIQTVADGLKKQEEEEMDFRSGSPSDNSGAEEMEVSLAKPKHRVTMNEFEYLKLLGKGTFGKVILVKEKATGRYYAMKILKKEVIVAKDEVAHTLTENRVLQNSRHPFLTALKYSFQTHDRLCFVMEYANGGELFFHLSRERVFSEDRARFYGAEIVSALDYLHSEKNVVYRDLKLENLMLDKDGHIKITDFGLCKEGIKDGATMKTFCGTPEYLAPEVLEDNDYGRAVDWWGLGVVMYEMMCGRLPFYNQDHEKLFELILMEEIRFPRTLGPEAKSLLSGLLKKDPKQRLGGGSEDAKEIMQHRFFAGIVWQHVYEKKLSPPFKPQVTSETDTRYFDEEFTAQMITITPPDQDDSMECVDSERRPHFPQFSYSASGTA

[2] = target: T1, HA-Akt (human Akt1 fused to an …); test: co-immunoprecipitation from transfected HEK/293 cells (anti-HA IP; the reverse anti-Foxa-2 IP gave the same result)

- binding result [1]: binds
B1: Foxa-2T156A (other, rat, UniProt P32182 1-458, looked up)
chain: MLGAVKMEGHEPSDWSSYYAEPEGYSSVSNMNASLGMNGMNTYMSMSAAAMGSGSGNMSAGSMNMSSYVGAGMSPSLAGMSPGAGAMAGMSGSAGAAGVAGMGPHLSPSLSPLGGQAAGAMGGLAPYANMNSMSPMYGQAGLSRARDPKTYRRSYAHAKPPYSYISLITMAIQQSPNKMLTLSEIYQWIMDLFPFYRQNQQRWQNSIRHSLSFNDFLKVPRAPDKPGKGSFWTLHPDSGNMFENGCYLRRQKRFKCENELALKEAAGAGSGGGKKTAPGTQASQVQLGEAAGSASETPAGTESPHSSASPCQEHKRGGLSELKGTPASALSPPEPAPSPGQQQQAAAHLLGPPHHPGLPPEAHLKPEHHYAFNHPFSINNLMSSEQQHHHSHHHHQPHKMDLKTYEQVMHYPGGYGSPMPGSLAMGPVTNKAGLDASPLAADTSYYQGVYSRPIMNSS
notes: Phosphorylation-deficient mutant; also called TI56A; Foxa-2TI56A

- binding result [2]: no binding
B2: Foxa-2R153K (other, rat, UniProt P32182 1-458, looked up)
chain: B1 chain with R153K, A156T
